This is an account of results in patent US20240226186A9, “OBLIGATE ANAEROBIC HUMAN INTESTINAL MICROBE FOR CANCER TREATMENT, AND USE THEREOF” (HEALTHBIOME, priority 2019, published 2024).

One experiment relates to lung cancer cells (LLC). Briefly: MTT assay, proliferation of lung cancer cells. The experiment is classed as cell-based. Particulars: LLC, 0.1, 1.0 or 10 μg/mL for 48 hours, 2-DG 20 mM (FIG. 18B). The procedure: (§1) Then, it was investigated whether the purified HB03-01 and HB03-03 proteins affect the proliferation or apoptosis of cancer cells. Specifically, after treating colorectal cancer cells (CT26) and lung cancer cells (LLC) with the HB03-derived protein HB03-01 at concentrations of 0 (untreated), 0.1, 1.0 or 10 μg/mL or with HB03-03 at 10 μg/mL, the proliferation of the cancer cells and the activity of the apoptosis-regulating enzyme caspase-3 were investigated.
(§2) MTT assay was conducted to investigate the change in the proliferation of the cancer cells. The cancer cells were cultured using a DMEM medium (Gibco, USA) for 24 hours on a 96-well plate at 1×10^4 cells/well in a 5% CO2 incubator at 37° C. A low-glucose condition was maintained by treating with 2-deoxyglucose (2-DG) to a final concentration of 20 mM. After culturing for 6 hours, HB03-01 was treated at a concentration of 0, 0.1, 1.0 or 10 μg/mL for 48 hours. After adding 10 μL of an MTT solution, the cells were cultured further for 2 hours. After removing the medium from the 96-well plate and dissolving a formazan formed on the plate with 100 μL of DMSO, absorbance was measured at 540 nm using an ELISA reader (Model 680, BioRad). A control group was treated with 0 μg/mL HB03-01 (untreated), and the measurement values were represented as relative cell survivability (%) with respect to the number of cells in the control group as 100%.
On the technique in general: Formazan colour is commonly taken as a measure of viable cells.

In another experiment the test system is caspase-3. The experiment can be described thus: Western blot of caspase-3 activity level in lung cancer cells. The experiment is classed as cell-based. The following applies: LLC lung cancer cells, 10 μg/mL for 24 hours (FIG. 18C). Here is the method: as §1
Western blot was conducted to investigate the activity level of caspase-3. Lung cancer cells treated with 10 μg/mL of HB03-01 or HB03-03 for 24 hours were homogenized in an ice-cold 20 mM Tris-HCl buffer (pH 7.5) containing 2 mM EDTA (ethylenediaminetetraacetic acid), 0.5 mM EGTA (ethylene glycol tetraacetic acid), 300 mM sucrose and 2 mM PMSF (phenylmethylsulfonyl fluoride). After electrophoresing 50 μg of proteins on 15% SDS-PAGE (sodium dodecyl sulfate-polyacrylamide gel electrophoresis) gel, they were transferred onto a PVDF (polyvinylidene fluoride) membrane using a semidry transfer system (Hoefer, Holliston, MA, USA). Non-specific binding was blocked by incubating with 5% non-fat dry milk. […] The immune complexes were detected using an ECL detection kit (Amersham Biosciences Korea, Seoul, Korea) and auto-radiographed onto an X-ray film. […]
A general note: In western blotting, separated proteins are transferred to a membrane and probed.

The subject of experiment [1] is colorectal cancer cells (CT26). The experiment can be described thus: MTT assay, proliferation of colorectal cancer cells. Particulars: CT26, 0.1, 1.0 or 10 μg/mL for 48 hours, 2-DG 20 mM (FIG. 18A). The class given is cell-based. The procedure: as §1, §2
The test system of experiment [2] is MC38 colorectal cancer cells. Briefly: Tumor growth in mice inoculated with MC38 colorectal cancer cells. The experiment is classed as in vivo, C57BL/6 JAX mice. The following applies: administered 5 times until day 16 with 2-day intervals from day 5 (FIG. 19). The source says: 6- to 8-week old male C57BL/6J JAX and BALB/c mice purchased from Daehan Biolink were used. Each of the mice was housed in a cage and was maintained under a controlled environment (12-hour light/dark cycle, light-off at 7 pm) with free access to feed and water ad libitum. Tumorigenesis was induced by injecting pancreatic cancer cells (Panc02), melanoma cells (B16F10), glioma cells (GL261), sarcoma cells (MCA205) colorectal cancer cells (MC38) and lung cancer cells (LLC) to the C57BL/6 JAX mice and injecting colorectal cancer cells (CT26) to the BALB/c mice. Specifically, 1×10^7 cells/100 μL of Panc02, 2×10^5 cells/100 μL of B16F10, 5×10^5 cells/100 μL of GL261, 5×10^5 cells/100 μL of MCA205, 5×10^5 cells/100 μL of MC38, 5×10^5 cells/100 μL of LLC or 5×10^5 cells/100 μL of CT26 tumor cells were subcutaneously injected to the mice. Tumor size was measured with 2- or 3-day intervals until the end of the experiment, and tumor volume was calculated as length×width^2×0.5. In order to investigate the change in tumor size and immune environment owing to HB03 and its fragment, intestinal contents were recovered, immersed in liquid nitrogen and then kept at −80° C. All animal experimental procedures were approved by the Animal Care and Use Committee of Korea Research Institute of Bioscience and Biotechnology. […]

B1: HB03-01: protein produced by the HB03 strain, SEQ ID NO 1, overexpressed in E. coli and purified (protein)
chain: IVNSKRSELDKKISIAAKEIKSANAAEITPSRSSNEELEKELNRYAKAVGSLETAYKPFLASSALVPTTPTAFQNELKTFRDSLISSCKKKNILITDTSSWLGFQVYSTQAPSVQAASTLGFELKAINSLVNKLAECGLSKFIKVYRPQLPIETPANNPEESDEADQAPWTPMPLEIAFQGDRESVLKAMNAITGMQDYLFTVNSIRIRNERMMPPPIANPAAAKPAAAQPATGAASLTPADEATAPAAPAIQQVIKPYMGKEQVFVQVSLNLVHFNQPKAQEPSED
modifications: HB03-01
In the case of B1, the “Proliferation of lung cancer cells (relative cell survivability)” value in the experiment with lung cancer cells (LLC) was “significantly decreased”. Also, the “Activation of apoptosis-regulating enzyme (caspase-3)” value in the experiment on caspase-3 is reported as “activated”. For the same molecule, the “Proliferation of colorectal cancer cells (relative cell survivability)” value in experiment [1] is “significantly decreased”. The “Tumor growth vs control group, post-treatment with HB03-derived protein” value in experiment [2] is listed as “significantly inhibit tumor growth”.

B2: HB03-03: protein produced by the HB03 strain, SEQ ID NO 2, overexpressed in E. coli and purified (protein)
chain: IPESSVPAAAVSSVKGAYPNAGPIEWDSEMHGMERIYEAEFRINGFQFDVKIAPDGKIVRIKEEIAASSLPEAVRASVLKRYPGCRIKEAEKITEGELVRYKVEVADSRDDYDVLIAPDGNILHVDR
modifications: HB03-03
As for B2, the “Activation of apoptosis-regulating enzyme (caspase-3)” value in the experiment on caspase-3 is given as “activated”. The “Tumor growth vs control group, post-treatment with HB03-derived protein” value in experiment [2] is on record as “significantly inhibit tumor growth”.
